Here are results for 18 sequences from the DeepSol protein solubility set.

This series can be described thus: soluble on expression in E. coli; label from the status in PepcDB or PDB records.
Turning to “MRPQQLHATEITSSGFRLAWPPLLTADSGYYVLELVPSAQPGAARRQQLPGNATDWIWAGLDPDTDYDVALVPESNVRLLRPQILRVRTRPGEAGPGASGPESGAGPAPTQLAALPAPEEAGPERIVISHARPRSLRVSWAPALGSAAALGYHVQFGPLRGGEAQRVEVPAGRNCTTLQGLAPGTAYLVTVTAAFRSGRESALSAKACTPDGPRPRPRPVPRAPTPGTASREP”, the “soluble on expression in E. coli” value is recorded as “soluble”.

Regarding “MRPVYFLSDFGLEDPYVAVVKAVLAERAPGPAVVDLAHALPPQDLRRAAYALFEALPYLPEGAVVLAVVDPGVGTARRAVAALGRWTYVGPDNGLFTLAWLLDPPRRAFLLEPPRPRPKAALPGWAPGEATFHGRDVFAPAAAHLALGLPPEGLGPEVPVETLARLPLALTEGPEGEVLTFDRFGNAITTLLRAPVGGFVEVGGRRVPVRRTFGEVPEGAPVAYLGSAGLLEVAVNRGSAREALGLKEGMPVRLL”, the “soluble on expression in E. coli” value was “soluble”.

With “MRPYIINQTEQAQARFGINNDFPVNVILMQPTTSHETFLEGSDYVDFESTSKLRNWPIIVGNQKYFVDPAIFARNSDYFRILMENKFFLEGAIKQLNILDESPEDILKLITVISPNSLGLYPDVIDEQNVCTVLRLCDKYLMTNLKQNCVDYLKDYNPDSREPTDIFHLFYHLCFSLNAEYEHDHSLADVALEAMFVCLVELFNSTNVTKFYRFLIELQRKSGEKDSENLKRVTDAVLHGGSIFKHRISFSEEVQGLGCHQCSMRPPARQSRSKNRKSFVLYLCKSCNREVCVQCRRSLCSRLFEDWINELRS”, the “soluble on expression in E. coli” value was “not soluble”.

Turning to “MRQHAAPCTQLITWSIEMDNALDFLLEQAQESEDKAVLALSKARSELDSYYHQLRQIEQYRLEYCQQLVERGKSGLTASQYGHLNRFLTQLDETLAKQKSAEQHFRLQVENCEQHWMNMRQKRKSYQWLMEKKQTERQLLQEKREQKQMDEFSTLMFNRRRLSS”, the “soluble on expression in E. coli” value is “not soluble”.

As for “MRQIKVVLIGGGTGLSVMARGLREFPIDITAIVTVADNGGSTGKIRDEMDIPAPGDIRNVIAALSDSESVLSQLFQYRFEENQISGHSLGNLLIAGMTNITNDFGHAIKALSKILNIKGRVIPSTNTSVQLNAVMEDGEIVFGETNIPKKHKKIDRVFLEPNDVQPMEEAIDALREADLIVLGPGSLYTSVISNLCVNGISDALIHSDAPKLYVSNVMTQPGETDGYSVKDHIDAIHRQAGQPFIDYVICSTQTFNAQVLKKYEEKHSKPVEVNKAELEKESINVKTSSNLVEISENHLVRHNTKVLSTMIYDIALELISTIPFVPSDKRKLEHHHHHH”, the “soluble on expression in E. coli” value is “soluble”.

As to “MRQIQSIRLIDVLELAFGVGYKEETTSQFSSDQPSQVVLYRGEANTVRFAYTNQMSLMKDIRIALDGSDKSLTAQIVPGMGHVYEGFQTSARGIFTMSGVPESTVPVANPNVQTKYIRYFKVIDDMHNTMYKGTVFLVQPQAWKYTMKSVDQLPVDDLNHIGVAGIERMTTLIKNAGALLTTGGSGAFPDNIKVSINPKGRQATITYGDGSTDIIPPAVLWKKGSVKEPTEADQSVGTPTPGIPGKFKRDQSLNEHEAMVNVEPLSHVVKDNIKVIDEKSTGRFEPFRPNEDEKEKPASDVKVRPAEVGSWLEPATALPSVEMSAEDRLKS”, the “soluble on expression in E. coli” value is reported as “not soluble”.

As for “MRQNDKIMCILENRKKRDRKNLCRAINDFQQSFQKPETRREFDLSDPLALKKDLPARQSDNDVRNTISGMQKFMGEDLNFHERKKFQEEQNREWSLQQQREWKNARAEQKCAEALYTETRLQFDETAKHLQKLESTTRKAVCASVKDFNKSQAIESVERKKQEKKQEQEDNLAEITNLLRGDLLSENPQQAASSFGPHRVVPDRWKGMTQEQLEQIRLVQKQQIQEKLRLQEEKRQRDLDWDRRRIQGARATLLFERQQWRRQRDLRRALDSSNLSLAKEQHLQKKYMNEVYTNQPTGDYFTQFNTGSR”, the “soluble on expression in E. coli” value is “not soluble”.

With “MRQVDFSPFYRSTVGFDHLFNWFDSRTQPDDVSSYPPYNIERLSEDSYRISMAVAGFSQDEIDIETHCNQLIVRGERKPENDDEEREFLYRGIASRAFERRFHLADHVKVIGAELGDGLLHIQLKREMPAELKPKKIVVQASSSAVKNGNDHAVRKVSLENERTE”, the “soluble on expression in E. coli” value is listed as “not soluble”.

In the case of “MRRIGAITALSLPVLLSLLYSCGTGGSASKEEILSKKEHNPEPNIPLECYTDTGVVKLGKAIANPCYVCHTKALTPYENEVDDFDLQLVYDFPEEIKEMGNPWLNAIKPELTIGSVPMPSDEEIKTWIRQDNWSKAYAEKGKGELVYFPDIPPIYKYENGSYELINVDKEGFVRDPETGEYTGWRVFKWKPFPGFFPTNGRIDSTFIRLPEKFRKKNGEFDLNLYKKNLAILECAMKGVAPGETCSGTEVGDFIMPFRYEGDASDVEVVVYQYPPGTEFAHPLYYLDPENTLSFKSLRIKEMRYMKKLAYADTRTGTGEEEEEEGTFFWDKGRFFNDSGYWEMRAFIEDKNGYLRPQSPEESKFCIACHGGIGGTVDGTFTLWRKIPGEEGWKEQDYKNIKDYRYKAITCENLDSLEMGEEVKKALEAYCSKVGESPGEYTVYFALTAGGDHFRSNYEILQDISVDGKVDLELLYNPEKIKFIDNSGFIKPELFFPEPERAYGIDKQYYRIVKAQAFIYGRDVFEKAFGISSGGNSLEELDNLESTGVKESGIWNFVKNFLSSE”, the “soluble on expression in E. coli” value is “not soluble”.

As to “MRRLAWLLPLLLLAGAVGALRYQWLDLPARWNPWLPLDVREPPNLLTRYKLWRLADDRSLCDAALATSQLRYQRVADDPPSATCPLSNSLRVRGAALELSSSFLASCPLAVSYALFERHVLQPAALDIYGQPLARVEHVGSFACRNVYNREDGRRSQHASANALDISGFRLADGRRIRLATDWAGESADGRFLRRVRDGACASFNAVLGPDYNAAHRDHFHLDMGLWKVCRLEHHHHHH”, the “soluble on expression in E. coli” value is given as “not soluble”.

“MRRSGPELWKTLTSVSKSGQKKGRRNTRQPVRPLNRFYRIGSSPMKIEFAGLNAPIRMRETENQNLMSIAEQTEDEIRDSMGGTKKILEERDTGKKKRNREKLHPMERGFSGTQLVGQKLGAPPPLDGVNFDDFETYCLEVKRTSNMTNVFGRVHTMSALVVTGNGRGLAGYAVGKAPIHRTTTAIINGMGMASRKLFHVELHEGRTIYQDFYAECRNTRVFAQRRPRGFGLTCHPRLIKICEAIGIKDIYVKVEGSTKNYLALTHAFVTGLLNQETHQQLAERKGLHVVEMSPSRHFLPQIVASPISTELKTEETLEALDRLNLDDFYGEGRYPLRKPKSLPFFSNLEGHLDARWRKHPFRNQESTMIRLIADNMVPRWTRDARAAWADQRNERMTTGVEPMPLGIGLSHVVPKKDD”: the “soluble on expression in E. coli” value is listed as “not soluble”.

“MRRTVRYILATSNPMGDLEALEKFVKLAPDTGADAIALIGNLMPKAAKSRDYAAFFRILSEAHLPTAYVPGPQDAPIWEYLREAANVELVHPEMRNVHETFTFWRGPYLVAGVGGEIADEGEPEEHEALRYPAWVAEYRLKALWELKDYPKIFLFHTMPYHKGLNEQGSHEVAHLIKTHNPLLVLVAGKGQKHEMLGASWVVVPGDLSEGEYSLLDLRARKLETGNVR”: the “soluble on expression in E. coli” value is reported as “soluble”.

For “MRSANHSELSNALLAISQSLADRSQLTQTLDAVLTAARQMTLAKHGIIYVLDQTGQALIPSTAHHNDKTIVSHPWEALQIDSASENDPFNFAIRNGEVVLINELYKYKGYDCESIYQTEQTLGLKSENLLAWPLIDSESKTIGLLVLLDLNVIDNEAALTEFCRMAASNIRQAVWLEQ”, the “soluble on expression in E. coli” value was “not soluble”.

For the sequence “MRSATDLLDELNAVDESARIEAKRASDMGKSVMETVIAFANEPGLDGGYLLLGVDWAINDKGDTVYRPVGLPDPDKVQRDLASQCASMLNVALRPEMQLEQVGGKTLLVVYVPEADVTHKPIYKKATGLPGGAYRRIGSSDQRCVDEDLWVLRGESQPLHGPDSSILSDARADDFDPTAIAAYRRERARINPQAEELDYGDEDMLEALGALRRVDGVLQPTLAGIVLFGKPLALRRLLPMVRIDYIRVPGNEWVEDPENRFQSIDIRKPLMLALPLAEASIIDELPKGFRLPEGQLQSVQEPILPRKVIREALANAAMHRNYTLHSPTQIIRYSNRIEIRNVGYSLKEPAQLGLPGSRLRNPAIAAVLHDLHLAEAKGTGIRAMRRLAADAGLPLPEFHSDRQANEFKLTLFLHNLLTEEDHTWLRNYAGSTLGPDEAKVLIYVRATGAVDNTACRDFCGSDTLAASMVLRRLRDRGLLEKRGAGSRTYYTLAGNEPRPTLESAQSELPLDVPADTPPVGQPQPAEAVAGQQACNPQLATLPPELATLLATLQGRISSEALRDGIRRLCQWAPQSGDQLATLLGKDRDYLRNKHLIPMVRDGQLRFRYPESAKHPHQAYVAPEDKRNDLEHHHHHH”, the “soluble on expression in E. coli” value was “soluble”.

Take “MRSKLNQYNQKRNFTRTLEPEGITEMPQEGLRFVVQHHLARRDHYDLRLEWDGAMLSWAVPKGPSYNTWDKRLAVQVEDHPLEYRHFEGTIPKGEYGGGVVMLWDEGFWEPYVDVDGGLHEGMLKFVLKGRRLKGRWALVRMKGKAGDKKDNWLLLKEKDDYVQTADGISQFTTSLEHHHHHH”: the “soluble on expression in E. coli” value was “not soluble”.

With “MRTAEIREKFLSFFEGKGHLRLPSFSLIPEDDPSLLFTSAGMAPLKPYFLGAKPIFGGREWRRVTTCQECLRVGDIENVGRTSRHNTYFEMLGNFSFGDYFKKEAILWAWEFLTEHLKLDPGRLWVTVFEDDDEAYEIWRDLVGVPEERIGRFGEDENYWPGGAITHGPNGPSGPCSEIFYDRGPAYGTPDETGPNTGSGDRFVEIWNLVFTQYDRQGPIPGPGILKPLPQKNIDTGMGLYRVAAILQDVEDFYRTDTFFPIIQEVARMSGRPYEGKTSVSHRVIADHVRAVVAALSDGATFSNTGRGYVIRRLLRRALRHGYLLGLSDPFLHRLAPLVAELLGDFYPEMRENLPAVEKQIRLEEERFLETLEGGLKRLDALLSGLKPGEVLPGKEAFRLYDTYGFPLDLTVEIAAERGYGVDTEGFQKAMEEQQSRSRAAMAFEREIFKKGAQVLEELYAERGATEFLGYNALEAEAEVLALLAGDQSLLEAGPGTEVQVVLDKTPFYAEGGGQIGDFGLLEWPGGRARVETTRKTERGIFLHKARVEEGVLRVGERVRAVVDPRRRDTERNHTATHLLHAALRAVLGPHVRQAGSLVAPDRLRFDFTHPEPLKPEELERVELLVNRWIMADFPVTWRYMPLEEARKEGAMALFGEKYGEVVRVVRVEGSPLEGLESKELCGGCHVRRTGEIGAFLIRSEEAVSAGVRRIEAVTGEEAIRFARGSLNRLKALAERLEVGEAALEERLEKLLAELKEKEREVESLKARLVQAALGGGGGASLEEKGGLRWTVAELPGLDAKALRQAADDLVARGADVALVLSGGQAVLKLSPKAQGMGLEAGALFRALAEKAGGRGGGKGALAQGGGLDPRKAREALPGLLP”, the “soluble on expression in E. coli” value is recorded as “soluble”.

As for “MRTLRIGIVGLGGIAQKAWLPVLTNTAGWTLQGAWSPSRDKALRICESWRIPYVDSLANLASSCDAVFVHSSTASHYAVVSELLNAGVHVCVDKPLAENLRDAERLVALAAQKKLTLMVGFNRRFAPLYRELKTRLGTAASLRMDKHRTDSVGPHDLRFTLLDDYLHVVDTALWLAGGEARLASGTLLTSESGEMCYAEHHFSADKLQITTSMHRRAGSQRESVQAVTDGGLYDVTDMREWREERGQGILIKPIPSWQTTLEQRGFVGCARHFIDCVQNQTVPETAGEQAILAQRVVEALWRDAISE”, the “soluble on expression in E. coli” value is recorded as “not soluble”.

Regarding “MRTQWPSPAKLNLFLYITGQRADGYHTLQTLFQFLDYGDTISIELRDDGDIRLLTPVEGVEHEDNLIVRAARLLMKTAADSGRLPTGSGANISIDKRLPMGGGLGGGSSNAATVLVALNHLWQCGLSMDELAEMGLTLGADVPVFVRGHAAFAEGVGEILTPVDPPEKWYLVAHPGVSIPTPVIFKDPELPRNTPKRSIETLLKCEFSNDCEVIARKRFREVDAVLSWLLEYAPSRLTGTGACVFAEFDTESEARQVLEQAPEWLNGFVAKGVNLSPLHRAML”, the “soluble on expression in E. coli” value was “soluble”.
